What is called stoichiometry N is a count of units in the complex or per binding partner.

The target in the experiment is Pyruvate kinase M2 (PKM2) (human (endogenous in MDA-MB-231 and MCF-7)) (UniProt P14618). Briefly: native gel or EMSA.

Pyruvate kinase M2 (PKM2), P14618 1-531 (enzyme; other documents disagree on this pair), sequence (P14618 whole entry): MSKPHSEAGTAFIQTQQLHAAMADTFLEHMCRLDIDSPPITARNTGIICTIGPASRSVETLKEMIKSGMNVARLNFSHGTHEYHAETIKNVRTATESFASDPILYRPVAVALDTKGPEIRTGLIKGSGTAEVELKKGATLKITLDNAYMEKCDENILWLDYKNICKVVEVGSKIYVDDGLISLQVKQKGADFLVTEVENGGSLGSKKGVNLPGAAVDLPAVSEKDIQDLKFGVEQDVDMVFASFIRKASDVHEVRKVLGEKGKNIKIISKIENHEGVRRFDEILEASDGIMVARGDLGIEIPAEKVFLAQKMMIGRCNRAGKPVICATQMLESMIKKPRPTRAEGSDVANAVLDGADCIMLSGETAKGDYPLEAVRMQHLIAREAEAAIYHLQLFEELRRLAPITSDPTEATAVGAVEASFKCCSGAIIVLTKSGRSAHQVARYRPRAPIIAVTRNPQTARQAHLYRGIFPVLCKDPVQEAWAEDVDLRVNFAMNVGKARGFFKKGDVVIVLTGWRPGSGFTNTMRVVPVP

Take “Pyruvate kinase M2 (PKM2), P14618 1-531 (enzyme; other documents disagree on this pair)”: the stoichiometry N was found to be 2.
